Results as given in patent US20140087995A1 (published 2014).
One block for each binder: values may come before it. Numbered stars: 1 amine (or outer) side, 2 acyl side, 3 side chain; on linkers, the order of the positions; unused ones are H or OH. Bridge positions count the residues as written; N and C are the ends. * marks the point of attachment. C20 diacid = O=C(O)CCCCCCCCCCCCCCCCCCC(=O)*; γGlu = O=C(O)[C@H](CCC(=O)[*:2])N[*:1]

Key:
[1] = target: T1, human calcitonin receptor (human, UniProt P30988 25-474); assay: IC50 at hCTR divided by IC50 at hAmylin-R (reference)
T1 construct: whole, on cells; Membranes of a BHK tk'ts 13 cell line stably transfected with the human calcitonin receptor; also called hCTR; hCT
T1 sequence (looked up): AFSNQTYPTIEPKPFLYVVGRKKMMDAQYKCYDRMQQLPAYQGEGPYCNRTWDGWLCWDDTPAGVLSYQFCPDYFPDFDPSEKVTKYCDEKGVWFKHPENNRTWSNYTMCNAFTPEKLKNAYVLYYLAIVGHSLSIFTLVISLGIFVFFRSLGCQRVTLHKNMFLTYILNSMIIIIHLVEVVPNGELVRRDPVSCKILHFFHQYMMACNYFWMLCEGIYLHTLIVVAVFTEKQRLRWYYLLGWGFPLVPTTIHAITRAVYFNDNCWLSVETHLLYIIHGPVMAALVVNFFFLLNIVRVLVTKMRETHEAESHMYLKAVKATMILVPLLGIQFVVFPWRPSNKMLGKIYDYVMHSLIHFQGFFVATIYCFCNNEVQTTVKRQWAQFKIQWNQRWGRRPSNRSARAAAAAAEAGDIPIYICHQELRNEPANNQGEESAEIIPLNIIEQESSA
In short: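 Competition binding by SPA uses membrane preparations (35 ng/μL final) in pH 7.4 Hepes buffer with 1 mM CaCl2 and 5 mM MgCl₂. Incubation lasts 120 min at 25° C, and IC₅₀ comes from one-site fitting.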

rat calcitonin receptor [2] = target: T2, rat calcitonin receptor (rat, UniProt P32214 25-516); assay: IC50 at rCTR divided by IC50 at rAmylin-R (reference)
T2 construct: whole, on cells; Membranes of BHK tk'ts 13 cells transiently transfected with the rat calcitonin receptor; also called rCTR; rat calcitonin (a) receptor
T2 sequence (looked up): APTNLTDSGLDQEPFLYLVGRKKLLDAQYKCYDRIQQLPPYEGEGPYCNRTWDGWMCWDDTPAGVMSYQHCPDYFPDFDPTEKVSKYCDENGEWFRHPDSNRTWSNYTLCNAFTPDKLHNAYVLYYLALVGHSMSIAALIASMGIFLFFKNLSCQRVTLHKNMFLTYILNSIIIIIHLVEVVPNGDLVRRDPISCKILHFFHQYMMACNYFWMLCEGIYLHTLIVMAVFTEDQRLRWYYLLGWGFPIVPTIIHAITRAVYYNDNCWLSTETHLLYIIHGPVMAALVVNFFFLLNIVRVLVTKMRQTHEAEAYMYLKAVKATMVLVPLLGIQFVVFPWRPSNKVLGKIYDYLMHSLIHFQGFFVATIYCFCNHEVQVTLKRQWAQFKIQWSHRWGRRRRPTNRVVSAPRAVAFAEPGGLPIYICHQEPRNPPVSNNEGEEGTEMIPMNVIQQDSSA

rat calcitonin receptor [3] = target: T2, rat calcitonin receptor; assay: SPA competition vs 125I-calcitonin, membranes with rat CTR (Assay VIII)
[4] = target: T3, rat amylin receptor (rat calcitonin receptor + rat RAMP 3) (rat, UniProt P32214 25-516; Q9JJ73 23-147); assay: SPA competition vs 125I-rat amylin, membranes with rat CTR + rat RAMP3 (Assay VI)
T3 construct: whole, on cells; Membranes of BHK tk'ts 13 cells transiently transfected with the rat calcitonin receptor and rat RAMP 3; also called rAmylin-R; rat amylin 3(a) receptor
T3 sequence (looked up) 1: T2 sequence (looked up)
T3 sequence (looked up) 2: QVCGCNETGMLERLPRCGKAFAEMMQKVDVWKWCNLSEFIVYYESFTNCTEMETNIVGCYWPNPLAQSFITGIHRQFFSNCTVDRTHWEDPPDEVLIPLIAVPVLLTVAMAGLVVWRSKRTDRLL

Ratio hCT/hAmylin binding [1]: 16.5
Ratio rCT/rAmylin binding (rat calcitonin receptor [2]): 42
IC50 (rat calcitonin receptor [3]): 47.2 nM
IC50 [4]: 1.12 nM
B1: N^α1-[(4S)-4-carboxy-4-(19-carboxynonadecanoylamino)butanoyl]-[Glu14,Arg17,Pro21,Pro26]-h-amylin (peptide)
peptide: {C20 diacid-γGlu}-KCNTATCATQRLAEFLRHSSPNFGAPLSSTNVGSNTY-NH2
modifications: disulfide 2-7
SMILES: CC(C)C[C@H](NC(=O)[C@H](CCCNC(=N)N)NC(=O)[C@H](CCC(N)=O)NC(=O)[C@@H](NC(=O)[C@H](C)NC(=O)[C@@H]1CSSC[C@H](NC(=O)[C@H](CCCCN)NC(=O)CC[C@H](NC(=O)CCCCCCCCCCCCCCCCCCC(=O)O)C(=O)O)C(=O)N[C@@H](CC(N)=O)C(=O)N[C@@H]([C@@H](C)O)C(=O)N[C@@H](C)C(=O)N[C@@H]([C@@H](C)O)C(=O)N1)[C@@H](C)O)C(=O)N[C@@H](C)C(=O)N[C@@H](CCC(=O)O)C(=O)N[C@@H](Cc1ccccc1)C(=O)N[C@@H](CC(C)C)C(=O)N[C@@H](CCCNC(=N)N)C(=O)N[C@@H](Cc1c[nH]cn1)C(=O)N[C@@H](CO)C(=O)N[C@@H](CO)C(=O)N1CCC[C@H]1C(=O)N[C@@H](CC(N)=O)C(=O)N[C@@H](Cc1ccccc1)C(=O)NCC(=O)N[C@@H](C)C(=O)N1CCC[C@H]1C(=O)N[C@@H](CC(C)C)C(=O)N[C@@H](CO)C(=O)N[C@@H](CO)C(=O)N[C@H](C(=O)N[C@@H](CC(N)=O)C(=O)N[C@H](C(=O)NCC(=O)N[C@@H](CO)C(=O)N[C@@H](CC(N)=O)C(=O)N[C@H](C(=O)N[C@@H](Cc1ccc(O)cc1)C(N)=O)[C@@H](C)O)C(C)C)[C@@H](C)O
notes: modifications are with respect to human amylin; also called compound 7

Ratio hCT/hAmylin binding [1]: 2.3
Ratio rCT/rAmylin binding (rat calcitonin receptor [2]): 14.3
IC50 (rat calcitonin receptor [3]): 7.35 nM
IC50 [4]: 0.514 nM
B2: N^α1-[(4S)-4-carboxy-4-(19-carboxynonadecanoylamino)butanoyl]-[Glu14,Arg17,Pro21,Pro27,Pro29]-h-amylin (peptide)
peptide: {C20 diacid-γGlu}-KCNTATCATQRLAEFLRHSSPNFGAIPSPTNVGSNTY-NH2
modifications: disulfide 2-7
SMILES: CC[C@H](C)[C@H](NC(=O)[C@H](C)NC(=O)CNC(=O)[C@H](Cc1ccccc1)NC(=O)[C@H](CC(N)=O)NC(=O)[C@@H]1CCCN1C(=O)[C@H](CO)NC(=O)[C@H](CO)NC(=O)[C@H](Cc1c[nH]cn1)NC(=O)[C@H](CCCNC(=N)N)NC(=O)[C@H](CC(C)C)NC(=O)[C@H](Cc1ccccc1)NC(=O)[C@H](CCC(=O)O)NC(=O)[C@H](C)NC(=O)[C@H](CC(C)C)NC(=O)[C@H](CCCNC(=N)N)NC(=O)[C@H](CCC(N)=O)NC(=O)[C@@H](NC(=O)[C@H](C)NC(=O)[C@@H]1CSSC[C@H](NC(=O)[C@H](CCCCN)NC(=O)CC[C@H](NC(=O)CCCCCCCCCCCCCCCCCCC(=O)O)C(=O)O)C(=O)N[C@@H](CC(N)=O)C(=O)N[C@@H]([C@@H](C)O)C(=O)N[C@@H](C)C(=O)N[C@@H]([C@@H](C)O)C(=O)N1)[C@@H](C)O)C(=O)N1CCC[C@H]1C(=O)N[C@@H](CO)C(=O)N1CCC[C@H]1C(=O)N[C@H](C(=O)N[C@@H](CC(N)=O)C(=O)N[C@H](C(=O)NCC(=O)N[C@@H](CO)C(=O)N[C@@H](CC(N)=O)C(=O)N[C@H](C(=O)N[C@@H](Cc1ccc(O)cc1)C(N)=O)[C@@H](C)O)C(C)C)[C@@H](C)O
notes: modifications are with respect to human amylin; also called compound 37

Ratio hCT/hAmylin binding [1]: 9.2
Ratio rCT/rAmylin binding (rat calcitonin receptor [2]): 27.3
IC50 (rat calcitonin receptor [3]): 13 nM
IC50 [4]: 0.476 nM
B3: N^α1-[(4S)-4-carboxy-4-(19-carboxynonadecanoylamino)butanoyl]-[Glu14,Arg17,Pro21,Pro27,His35]-h-amylin (peptide)
peptide: {C20 diacid-γGlu}-KCNTATCATQRLAEFLRHSSPNFGAIPSSTNVGSHTY-NH2
modifications: disulfide 2-7
SMILES: CC[C@H](C)[C@H](NC(=O)[C@H](C)NC(=O)CNC(=O)[C@H](Cc1ccccc1)NC(=O)[C@H](CC(N)=O)NC(=O)[C@@H]1CCCN1C(=O)[C@H](CO)NC(=O)[C@H](CO)NC(=O)[C@H](Cc1c[nH]cn1)NC(=O)[C@H](CCCNC(=N)N)NC(=O)[C@H](CC(C)C)NC(=O)[C@H](Cc1ccccc1)NC(=O)[C@H](CCC(=O)O)NC(=O)[C@H](C)NC(=O)[C@H](CC(C)C)NC(=O)[C@H](CCCNC(=N)N)NC(=O)[C@H](CCC(N)=O)NC(=O)[C@@H](NC(=O)[C@H](C)NC(=O)[C@@H]1CSSC[C@H](NC(=O)[C@H](CCCCN)NC(=O)CC[C@H](NC(=O)CCCCCCCCCCCCCCCCCCC(=O)O)C(=O)O)C(=O)N[C@@H](CC(N)=O)C(=O)N[C@@H]([C@@H](C)O)C(=O)N[C@@H](C)C(=O)N[C@@H]([C@@H](C)O)C(=O)N1)[C@@H](C)O)C(=O)N1CCC[C@H]1C(=O)N[C@@H](CO)C(=O)N[C@@H](CO)C(=O)N[C@H](C(=O)N[C@@H](CC(N)=O)C(=O)N[C@H](C(=O)NCC(=O)N[C@@H](CO)C(=O)N[C@@H](Cc1c[nH]cn1)C(=O)N[C@H](C(=O)N[C@@H](Cc1ccc(O)cc1)C(N)=O)[C@@H](C)O)C(C)C)[C@@H](C)O
notes: modifications are with respect to human amylin; also called compound 18

Ratio hCT/hAmylin binding [1]: 12.5
Ratio rCT/rAmylin binding (rat calcitonin receptor [2]): 35.9
IC50 (rat calcitonin receptor [3]): 97.2 nM
IC50 [4]: 2.71 nM
B4: N^α1-[(4S)-4-carboxy-4-(19-carboxynonadecanoylamino)butanoyl]-[Glu14,Arg17,Pro21,Pro27,His34]-h-amylin (peptide)
peptide: {C20 diacid-γGlu}-KCNTATCATQRLAEFLRHSSPNFGAIPSSTNVGHNTY-NH2
modifications: disulfide 2-7
SMILES: CC[C@H](C)[C@H](NC(=O)[C@H](C)NC(=O)CNC(=O)[C@H](Cc1ccccc1)NC(=O)[C@H](CC(N)=O)NC(=O)[C@@H]1CCCN1C(=O)[C@H](CO)NC(=O)[C@H](CO)NC(=O)[C@H](Cc1c[nH]cn1)NC(=O)[C@H](CCCNC(=N)N)NC(=O)[C@H](CC(C)C)NC(=O)[C@H](Cc1ccccc1)NC(=O)[C@H](CCC(=O)O)NC(=O)[C@H](C)NC(=O)[C@H](CC(C)C)NC(=O)[C@H](CCCNC(=N)N)NC(=O)[C@H](CCC(N)=O)NC(=O)[C@@H](NC(=O)[C@H](C)NC(=O)[C@@H]1CSSC[C@H](NC(=O)[C@H](CCCCN)NC(=O)CC[C@H](NC(=O)CCCCCCCCCCCCCCCCCCC(=O)O)C(=O)O)C(=O)N[C@@H](CC(N)=O)C(=O)N[C@@H]([C@@H](C)O)C(=O)N[C@@H](C)C(=O)N[C@@H]([C@@H](C)O)C(=O)N1)[C@@H](C)O)C(=O)N1CCC[C@H]1C(=O)N[C@@H](CO)C(=O)N[C@@H](CO)C(=O)N[C@H](C(=O)N[C@@H](CC(N)=O)C(=O)N[C@H](C(=O)NCC(=O)N[C@@H](Cc1c[nH]cn1)C(=O)N[C@@H](CC(N)=O)C(=O)N[C@H](C(=O)N[C@@H](Cc1ccc(O)cc1)C(N)=O)[C@@H](C)O)C(C)C)[C@@H](C)O
notes: modifications are with respect to human amylin; also called compound 17

Ratio hCT/hAmylin binding [1]: 19.1
Ratio rCT/rAmylin binding (rat calcitonin receptor [2]): 45.6
IC50 (rat calcitonin receptor [3]): 55.2 nM
IC50 [4]: 1.21 nM
B5: N^α1-[(4S)-4-carboxy-4-(19-carboxynonadecanoylamino)butanoyl]-[Glu14,Arg17,Pro21,Pro27,Arg35]-h-amylin (peptide)
peptide: {C20 diacid-γGlu}-KCNTATCATQRLAEFLRHSSPNFGAIPSSTNVGSRTY-NH2
modifications: disulfide 2-7
SMILES: CC[C@H](C)[C@H](NC(=O)[C@H](C)NC(=O)CNC(=O)[C@H](Cc1ccccc1)NC(=O)[C@H](CC(N)=O)NC(=O)[C@@H]1CCCN1C(=O)[C@H](CO)NC(=O)[C@H](CO)NC(=O)[C@H](Cc1c[nH]cn1)NC(=O)[C@H](CCCNC(=N)N)NC(=O)[C@H](CC(C)C)NC(=O)[C@H](Cc1ccccc1)NC(=O)[C@H](CCC(=O)O)NC(=O)[C@H](C)NC(=O)[C@H](CC(C)C)NC(=O)[C@H](CCCNC(=N)N)NC(=O)[C@H](CCC(N)=O)NC(=O)[C@@H](NC(=O)[C@H](C)NC(=O)[C@@H]1CSSC[C@H](NC(=O)[C@H](CCCCN)NC(=O)CC[C@H](NC(=O)CCCCCCCCCCCCCCCCCCC(=O)O)C(=O)O)C(=O)N[C@@H](CC(N)=O)C(=O)N[C@@H]([C@@H](C)O)C(=O)N[C@@H](C)C(=O)N[C@@H]([C@@H](C)O)C(=O)N1)[C@@H](C)O)C(=O)N1CCC[C@H]1C(=O)N[C@@H](CO)C(=O)N[C@@H](CO)C(=O)N[C@H](C(=O)N[C@@H](CC(N)=O)C(=O)N[C@H](C(=O)NCC(=O)N[C@@H](CO)C(=O)N[C@@H](CCCNC(=N)N)C(=O)N[C@H](C(=O)N[C@@H](Cc1ccc(O)cc1)C(N)=O)[C@@H](C)O)C(C)C)[C@@H](C)O
notes: modifications are with respect to human amylin; also called compound 16
